According to patent US20210179686A1, “CELL SORTING SYSTEMS AND METHODS OF USE” (MEMORIAL SLOAN-KETTERING CANCER CENTER, priority 2018, published 2021):

System: soluble CD28-Fc
Experiment: binding of soluble CD28-Fc by CD80 functionalized leucine zipper T cells
Conditions: FIG. 21B
Excerpt: CD80 (B7-1) molecule functionalized to present blocked capture leucine zipper, permitting magnetic sorting with FLAG-RR12EE345L leucine zipper. T cells were transduced with vectors encoding (a) FLAG-RR12EE345L iCaspase9 CD19-myc-CAR and (b) RR12EE345L linker EE12RR345L CD80 CD20-streptag-CAR. Next, cells were magnetically sorted with anti-FLAG magnetic beads.

B1: RR12EE345L linker EE12RR345L CD80: CD80 (B7-1) functionalized to present blocked capture leucine zipper, SEQ ID NO: 142 (protein)
chain: METDTLLLWVLLLWVPGSTGLEIRAAFLRQRNTALRTEVAELEQEVQRLENEVSQYETRYGPLGGGKGGGGSGGGGSGGGGSGGGSLEIEAAFLERENTALETRVAELRQRVQRLRNRVSQYRTRYGPLGGGKEFTGSTSGSGKPGSGEGSTKGVDEQLSKSVKDKVLLPCRYNSPHEDESEDRIYWQKHDKVVLSVIAGKLKVWPEYKNRTLYDNTTYSLIILGLVLSDRGTYSCVVQKKERGTYEVKHLALVKLSIKADFSTPNITESGNPSADTKRITCFASGGFPKPRFSWLENGRELPGINTTISQDPESELYTISSQLDFNTTRNHTIKCLIKYGDAHVSEDFTWEKPPEDPPDSKNTLVLFGAGFGAVITVVVIVVIIKCFCKHRSCFRRNEASRETNNSLTFGPEEALAEQTVFL
binding to soluble CD28-Fc: bound to soluble CD28-Fc
